# Columns and labels:
# [1] = target: SNAP25 (mouse (endogenous in mouse brain synaptosomes)) (UniProt P60879); assay: affinity purification with mass spectrometry
# [2] = target: SNAP25 (mouse (endogenous in mouse brain synaptosomes)) (UniProt P60879); assay: co-IP
# Chain of UniProt P60879 (P60879 whole entry): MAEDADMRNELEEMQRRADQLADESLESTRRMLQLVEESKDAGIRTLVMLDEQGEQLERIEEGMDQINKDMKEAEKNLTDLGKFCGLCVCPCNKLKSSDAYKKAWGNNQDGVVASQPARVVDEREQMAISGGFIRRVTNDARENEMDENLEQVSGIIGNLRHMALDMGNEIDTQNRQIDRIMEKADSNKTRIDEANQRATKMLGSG
fold increase of the interaction upon epi stimulation against the basal state [1],amount pulled down with SNAP25 per half brain [2],Substance
10 fold,,Gβ1 (from UniProt P62874 1-340) (natural protein)
,1 µg,Gβγ (from UniProt P62874 1-340; P63216 1-75) (complex)

# From paper doi:10.1101/2020.04.29.065136
